Assay results as given in the supplement of paper PMC9112550, “Optimization of the antimicrobial peptide Bac7 by deep mutational scanning” (BMC Biology, 2022).

tested on: Escherichia coli TOP10; assay: shrunken log2 fold change of peptide-encoding DNA abundance (4.5 h post-induction vs induction); higher = less antimicrobial activity (less host growth inhibition); settings: time post-induction: 4.5 h; library: site-saturation at positions 5, 18, 19, 20
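Further: peptides expressed intracellularly from a pBAD plasmid library in pooled LB shake-flask culture, induced with 0.3% L-arabinose, DNA abundance read by NGS, three biological replicates, DESeq2 with apeglm shrinkage.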

Point of comparison: RRIRQRPPRLPRPRPRPKKTPRP, “shrunken log2 fold change” value -0.0104. Against it:
- RRIRSRPPRLPRPRPRPPCMPRP — higher, 0.464
- RRIRERPPRLPRPRPRPDWKPRP — within 0.2 log units, -0.0141
- RRIRFRPPRLPRPRPRPQNMPRP — lower, -0.797
- RRIRRRPPRLPRPRPRPAALPRP — higher, 0.55
- RRIRIRPPRLPRPRPRPWGNPRP — lower, -0.803
- RRIRKRPPRLPRPRPRPAFDPRP — higher, 0.451
- RRIRSRPPRLPRPRPRPCVRPRP — within 0.2 log units, -0.103
- RRIRMRPPRLPRPRPRPKCNPRP — within 0.2 log units, 0.159
- RRIRDRPPRLPRPRPRPQIAPRP — within 0.2 log units, 0.0211
- RRIRERPPRLPRPRPRPLPAPRP — within 0.2 log units, 0.065
- RRIRHRPPRLPRPRPRPLEMPRP — lower, -0.236
- RRIRARPPRLPRPRPRPTKPPRP — higher, 0.24
- RRIRTRPPRLPRPRPRPPQRPRP — higher, 0.577
- RRIRNRPPRLPRPRPRPGPTPRP — higher, 0.3
- RRIRNRPPRLPRPRPRPVFVPRP — within 0.2 log units, -0.123
- RRIRYRPPRLPRPRPRPSPLPRP — lower, -0.55
- RRIRWRPPRLPRPRPRPWDWPRP — within 0.2 log units, 0.00466
- RRIRCRPPRLPRPRPRPVITPRP — lower, -0.496
- RRIRHRPPRLPRPRPRPECPPRP — within 0.2 log units, -0.0835
- RRIRDRPPRLPRPRPRPQGFPRP — within 0.2 log units, -0.00674
- RRIRNRPPRLPRPRPRPVIAPRP — lower, -0.25
- RRIRIRPPRLPRPRPRPYWPPRP — lower, -0.28
- RRIRIRPPRLPRPRPRPRDVPRP — within 0.2 log units, 0.000408
- RRIRPRPPRLPRPRPRPGHRPRP — within 0.2 log units, 0.0675
- RRIRERPPRLPRPRPRPMCAPRP — within 0.2 log units, 0.000297
- RRIRHRPPRLPRPRPRPKNRPRP — lower, -0.227
- RRIRIRPPRLPRPRPRPLHHPRP — within 0.2 log units, -0.148
- RRIRMRPPRLPRPRPRPHINPRP — lower, -0.339
- RRIRSRPPRLPRPRPRPCHYPRP — within 0.2 log units, -0.0214
- RRIRKRPPRLPRPRPRPHTGPRP — within 0.2 log units, -0.0786
- RRIRYRPPRLPRPRPRPCKWPRP — within 0.2 log units, -0.063
- RRIRVRPPRLPRPRPRPRRDPRP — within 0.2 log units, 0.141
- RRIRRRPPRLPRPRPRPAYFPRP — higher, 0.401
- RRIRNRPPRLPRPRPRPPVYPRP — within 0.2 log units, 0.111
- RRIRARPPRLPRPRPRPFNSPRP — within 0.2 log units, -0.0353
- RRIRKRPPRLPRPRPRPRWYPRP — higher, 0.275
- RRIRSRPPRLPRPRPRPEQWPRP — within 0.2 log units, 0.172
- RRIRARPPRLPRPRPRPWVIPRP — lower, -0.296
- RRIRFRPPRLPRPRPRPDFWPRP — within 0.2 log units, 0.0889
- RRIRLRPPRLPRPRPRPEHCPRP — within 0.2 log units, 0.0119
- RRIRNRPPRLPRPRPRPTKGPRP — within 0.2 log units, 0.0423
- RRIRKRPPRLPRPRPRPSTKPRP — within 0.2 log units, 0.143
- RRIRHRPPRLPRPRPRPVTCPRP — within 0.2 log units, 0.0254
- RRIRPRPPRLPRPRPRPETPPRP — within 0.2 log units, 0.152
- RRIRIRPPRLPRPRPRPMGDPRP — within 0.2 log units, -0.114
- RRIRDRPPRLPRPRPRPCAVPRP — within 0.2 log units, 0.189
- RRIRGRPPRLPRPRPRPWTDPRP — lower, -0.211
- RRIRTRPPRLPRPRPRPKYNPRP — lower, -0.81
- RRIRLRPPRLPRPRPRPAGAPRP — higher, 0.632
- RRIRKRPPRLPRPRPRPINNPRP — lower, -0.298
- RRIRLRPPRLPRPRPRPDWFPRP — within 0.2 log units, -0.173
- RRIRMRPPRLPRPRPRPAQGPRP — higher, 3.7
- RRIRMRPPRLPRPRPRPTQGPRP — higher, 0.805
- RRIRARPPRLPRPRPRPHYTPRP — higher, 0.203
- RRIRVRPPRLPRPRPRPLRIPRP — within 0.2 log units, 0.0616
- RRIRKRPPRLPRPRPRPLEKPRP — higher, 0.219
- RRIRGRPPRLPRPRPRPQCMPRP — higher, 0.403
- RRIRWRPPRLPRPRPRPQWDPRP — within 0.2 log units, -0.0065
- RRIRCRPPRLPRPRPRPDPDPRP — within 0.2 log units, -0.141
- RRIRIRPPRLPRPRPRPHNIPRP — lower, -0.424
- RRIRERPPRLPRPRPRPKKPPRP — higher, 0.507
- RRIRKRPPRLPRPRPRPYKGPRP — within 0.2 log units, -0.185
- RRIRIRPPRLPRPRPRPNHAPRP — within 0.2 log units, -0.0782
- RRIRDRPPRLPRPRPRPHIVPRP — within 0.2 log units, -0.146
- RRIRFRPPRLPRPRPRPGGYPRP — within 0.2 log units, 0.0294
- RRIRCRPPRLPRPRPRPFEDPRP — within 0.2 log units, -0.019
- RRIRYRPPRLPRPRPRPRHMPRP — lower, -0.55
- RRIRVRPPRLPRPRPRPGGCPRP — higher, 0.261
- RRIRVRPPRLPRPRPRPHCAPRP — within 0.2 log units, -0.179
- RRIRWRPPRLPRPRPRPVYWPRP — within 0.2 log units, 0.14
- RRIRTRPPRLPRPRPRPQSHPRP — within 0.2 log units, -0.207
- RRIRHRPPRLPRPRPRPQKIPRP — within 0.2 log units, 0.0342
- RRIRWRPPRLPRPRPRPMMYPRP — lower, -0.339
- RRIRIRPPRLPRPRPRPTDKPRP — lower, -0.406
- RRIRSRPPRLPRPRPRPYALPRP — lower, -0.613
- RRIRNRPPRLPRPRPRPEYTPRP — within 0.2 log units, -0.0431
- RRIRFRPPRLPRPRPRPGKMPRP — within 0.2 log units, -0.0519
- RRIRARPPRLPRPRPRPGRNPRP — higher, 0.419
- RRIRVRPPRLPRPRPRPVQLPRP — higher, 0.258
- RRIRNRPPRLPRPRPRPEDNPRP — within 0.2 log units, 0.0315
- RRIRERPPRLPRPRPRPQFDPRP — within 0.2 log units, -0.111
- RRIRCRPPRLPRPRPRPLTAPRP — within 0.2 log units, -0.119
- RRIRLRPPRLPRPRPRPDMHPRP — higher, 3.46
- RRIRNRPPRLPRPRPRPSVIPRP — lower, -0.781
- RRIRHRPPRLPRPRPRPLHNPRP — lower, -0.602
- RRIRLRPPRLPRPRPRPPKIPRP — within 0.2 log units, 0.0251
- RRIRVRPPRLPRPRPRPSMSPRP — within 0.2 log units, -0.147
- RRIRWRPPRLPRPRPRPVQCPRP — within 0.2 log units, 0.039
- RRIRVRPPRLPRPRPRPDNNPRP — lower, -0.796
- RRIRFRPPRLPRPRPRPANTPRP — within 0.2 log units, -0.209
- RRIRHRPPRLPRPRPRPKFQPRP — within 0.2 log units, -0.0213
- RRIRSRPPRLPRPRPRPKPPPRP — higher, 0.292
- RRIRLRPPRLPRPRPRPIVSPRP — within 0.2 log units, -0.0372
- RRIRHRPPRLPRPRPRPGYDPRP — higher, 0.381
- RRIRFRPPRLPRPRPRPDKHPRP — lower, -0.478
- RRIRCRPPRLPRPRPRPEPKPRP — within 0.2 log units, 0.104
- RRIRRRPPRLPRPRPRPWVGPRP — within 0.2 log units, -0.00367
- RRIRLRPPRLPRPRPRPKTFPRP — within 0.2 log units, -0.201
- RRIRYRPPRLPRPRPRPSFVPRP — lower, -0.714
- RRIRHRPPRLPRPRPRPICQPRP — within 0.2 log units, -0.113
- RRIRCRPPRLPRPRPRPQGKPRP — within 0.2 log units, -0.145
- RRIRNRPPRLPRPRPRPAWFPRP — higher, 0.294
- RRIRFRPPRLPRPRPRPYRDPRP — within 0.2 log units, -0.0081
- RRIRNRPPRLPRPRPRPMCCPRP — lower, -0.406
- RRIRIRPPRLPRPRPRPSQVPRP — within 0.2 log units, -0.186
- RRIRVRPPRLPRPRPRPSRFPRP — within 0.2 log units, -0.0691
- RRIRDRPPRLPRPRPRPPCTPRP — within 0.2 log units, 0.00986
- RRIRLRPPRLPRPRPRPGDMPRP — within 0.2 log units, -0.129
- RRIRHRPPRLPRPRPRPYNTPRP — lower, -1.01
- RRIRPRPPRLPRPRPRPWQLPRP — higher, 0.224
- RRIRRRPPRLPRPRPRPIGKPRP — within 0.2 log units, -0.0155
- RRIRARPPRLPRPRPRPVTGPRP — higher, 0.301
- RRIRVRPPRLPRPRPRPNMGPRP — within 0.2 log units, -0.11
- RRIRQRPPRLPRPRPRPQDFPRP — lower, -0.372
- RRIRARPPRLPRPRPRPFAQPRP — higher, 0.213
- RRIRFRPPRLPRPRPRPHCEPRP — within 0.2 log units, -0.0995
- RRIRVRPPRLPRPRPRPTAQPRP — within 0.2 log units, -0.113
- RRIRCRPPRLPRPRPRPTHMPRP — within 0.2 log units, -0.173
- RRIRDRPPRLPRPRPRPTVMPRP — lower, -0.221
- RRIRYRPPRLPRPRPRPHYEPRP — lower, -1.49
- RRIRCRPPRLPRPRPRPFHVPRP — lower, -0.893
- RRIRPRPPRLPRPRPRPKYHPRP — lower, -0.317
- RRIRMRPPRLPRPRPRPCRAPRP — higher, 0.496
- RRIRIRPPRLPRPRPRPGQTPRP — within 0.2 log units, 0.0693
- RRIRARPPRLPRPRPRPMDRPRP — within 0.2 log units, 0.108
- RRIRERPPRLPRPRPRPMLKPRP — lower, -0.292
- RRIRFRPPRLPRPRPRPEDWPRP — within 0.2 log units, 0.181
- RRIRSRPPRLPRPRPRPCTMPRP — within 0.2 log units, -0.154
- RRIRVRPPRLPRPRPRPMPHPRP — lower, -0.227
- RRIRNRPPRLPRPRPRPPRLPRP — higher, 0.514
- RRIRSRPPRLPRPRPRPSRSPRP — within 0.2 log units, 0.179
- RRIRNRPPRLPRPRPRPYVIPRP — within 0.2 log units, -0.177
- RRIRDRPPRLPRPRPRPGFDPRP — higher, 0.926
- RRIRQRPPRLPRPRPRPRMHPRP — within 0.2 log units, -0.0115
- RRIRPRPPRLPRPRPRPKNWPRP — higher, 0.261
- RRIRVRPPRLPRPRPRPARLPRP — higher, 0.266
- RRIRIRPPRLPRPRPRPMISPRP — within 0.2 log units, -0.00209
- RRIRWRPPRLPRPRPRPNVAPRP — within 0.2 log units, 0.088
- RRIRWRPPRLPRPRPRPIFVPRP — within 0.2 log units, 0.0493
- RRIRWRPPRLPRPRPRPKCAPRP — higher, 0.706
- RRIRGRPPRLPRPRPRPEREPRP — higher, 1.1
- RRIRNRPPRLPRPRPRPNVRPRP — lower, -0.243
- RRIRVRPPRLPRPRPRPYQSPRP — within 0.2 log units, -0.0308
- RRIRGRPPRLPRPRPRPARFPRP — higher, 0.683
- RRIRSRPPRLPRPRPRPLCTPRP — within 0.2 log units, 0.0479
- RRIRFRPPRLPRPRPRPRAAPRP — higher, 0.408
- RRIRIRPPRLPRPRPRPNVMPRP — lower, -0.328
- RRIRHRPPRLPRPRPRPLIPPRP — lower, -0.244
- RRIRQRPPRLPRPRPRPLVGPRP — higher, 0.38
